One may read the koff as a measure of how fast the partners let go of each other. In general, kon refers to the rate constant with which the complex forms. A higher kon goes with faster complex formation. For orientation: IC50 means the concentration that gives 50% inhibition. Read a high IC50 as lower potency.

The target of assay [1] is T1, biotinylated c-Met-Fc (R&D Systems, #358-MT-100/CF, 5.1 biotin per c-Met molecule) (human, UniProt P08581 25-932, biotinylated, 5.1 biotin per c-Met molecule (Pierce #21335)).
T1 construct: extracellular domain; Captured on a streptavidin (SA) chip for the BIAcore study of the IgGs; Fc part of the bought chimera not given
Put plainly: SPR (BIAcore), biotinylated c-Met-Fc captured on streptavidin chip, IgG as analyte, bivalent model. As for the experimental part:
The binding properties (on-rate, off-rate and affinity) of c-Met monoclonal antibodies (IgG or Fab versions) with human c-Met extracellular domain was determined using surface plasmon resonance, or BLAcore, technology. For the binding studies with IgG, a low density (<1 ng/mm2) of c-Met-Fc (R&D Systems, #358-MT-100/CF) containing 5.1 biotin per c-Met molecule (prepared with Pierce #21335 as per manufacturer's instructions) was captured onto a SA chip precoated with Streptavidin (BIAcore Inc.). A streptavidin flow cell without adsorbed c-Met-Fc was used as a control cell for non-specificbinding. The antibody sample to be analyzed was prepared in HEPES buffer (0.15M NaCl, 10 mM HEPES, 3.4 mM EDTA, 0.005% surfactant P-20, pH 7.4) to form a set of solutions varied in concentration from 0.78 nM to 100 nM. The HEPES buffer used as the running solution was set at a flow rate of 50 ul/min. Each sample solution was injected over the two flow cells for three minutes, followed by 5 minutes of dissociation. The flow cells were then regenerated with 4.5M MgCl₂ for one minute to remove the bound antibody for the next cycle of binding study. The net sensorgrams (subtraction of sensorgrams from the negative control flow cell as well as that from the buffer blank) obtained for each set of samples were processed simultaneously in a global fitting using a bivalent binding model of the BIAevaluation software program equipped with the system. The on-rate (Kₐ), off-rate (Kd) and binding affinity (KD) were determined from the fitting with KD equal to kd/kₐ.
For orientation: In SPR one partner is held on a chip, and binding of the other changes the refractive index at the surface.

In assay [2] the target is T2, c-Met/Fc Chimera (R&D Systems, catalog # 358-MT-100) (human, UniProt P08581 25-932).
T2 construct: extracellular domain; Bought reagent; also called human c-Met-Fc fusion protein; recombinant c-Met protein; Fc part of the bought chimera not given
Kind of assay: competition ELISA: displacement of biotinylated HGF from plate-coated c-Met/Fc chimera, IgG, n = 2. The protocol:
96-well Fluoronunc plates were coated with 50 ul of 0.5 ug/ml c-Met/Fc Chimera (R&D Systems, Minneapolis Minn., catalog # 358-MT-100) in phosphate buffered saline (PBS) and the plates were incubated overnight at room temperature. Wells were washed three times with washing buffer (PBS+0.1% Tween 20), blotting the plates on paper towels between each wash. Nonspecific binding in the wells was blocked by the addition of 250 ul of blocking buffer (3.0% milk (Carnation) in PBS) to each well and incubated at room temperature for two hours.
The c-Met antibodies were diluted in reagent buffer (PBS, 0.5% BSA, 0.05% Tween-20) and titrations were performed in 96 well polypropylene plates. Biotinylated HGF (0.4 ug/ml) (R&D Systems, biotinylated with Pierce #21335 as per manufacturer's instructions) was added to each well. 50 ul of the dilutions were transferred into the Fluoronunc plates containing human c-Met-Fc fusion protein (R&D Systems, #) and the plates were incubated for two hours at room temperature. The plates were washed three times with wash buffer and blotted onto paper towels. 50 ul of europium-labeled Streptavidin (Wallac Perkin Elmer) diluted 1:1000 in Delfia assay buffer (Wallac Perkin Elmer) was added per well and the plates were incubated for one hour at room temperature. The plates were washed seven times with Delfia wash buffer (Tris buffered saline (TBS) supplemented with 0.1% Tween-20) and blotted onto paper towels. 100 ul Delfia enhancer solution (Wallac Perkin Elmer) was added to each well and the plates incubated for 5 minutes on a plate shaker at room temperature. Plates were read on a fluorescence plate reader and analyzed using GraphPad Prism software (GraphPad Software, San Diego, Calif.).
C-Met antibodies 1A3.3.13 (#HB-11894, ATCC Hybridoma) and 5D5.11.6 (#HB-11895, ATCC Hybridoma) were used as positive controls. MOPC-21 (#M-7894, Sigma) was used as an IgG isotype control and HB-94 (#HB-94, ATCC Hybridoma) was converted into a Fab fragment and used as a Fab isotype control. NK4-Elastase is a kringle to kringle 4 fragment resulting from digesting intact HGF purified from S-114 cells with elastase (Date et al., FEBS Lett. 420:1-6 ([…]).
A general note: ELISA stands for enzyme-linked immunosorbent assay.

For assay [3], the target named is T2, c-Met/Fc Chimera (R&D Systems, catalog …). Put plainly: SPR (BIAcore), c-Met-Fc captured on protein A CM5 chip, Fab as analyte, 1:1 Langmuir model. As for the experimental part:
For the binding study of Fab fragments derived from antibodies of the invention, a high density (>2 ng/mm²) of protein A was first immobilized covalently onto a CM5 sensorchip using EDC/NHS amine coupling chemistry [. The flow cell containing c-Met-Fc captured by the protein A was used as the positive control while a flow cell containing only protein A was used as the negative control. The Fab sample to be analyzed was as above for antibodies to form a set of solutions with concentration ranged from 3.9 nM to 500 nM. The HEPES buffer used as the running solution was set at a flow rate of 50 ul/min. For each cycle of binding study, low density (<1 ng/mm²) of c-Met-Fc was captured first onto the positive flow cell. Each sample solution was then injected over the two flow cells (one negative and one positive in series) for three minutes followed by 5 minutes of dissociation. The flow cells were then regenerated with 4.5M MgCl₂ for one minute to remove the bound c-Met-Fc/Fab complexes for the next cycle of binding. The net sensorgrams (subtraction of sensorgrams from the negative control flow cell as well as that from the buffer blank) obtained from the set of samples were fitted simultaneously in a global fitting using a Langmuir 1:1 binding model of the BIAevaluation program equipped with the system. The on-rate (Kₐ), off-rate (Kd) and binding affinity (KD) were determined from the fitting with KD equal to kd/kₐ.

Assay [4] addresses c-Met (endogenous, on human cell lines 184B5, HCT-116, DU-145 and NCI H441) (human, UniProt P08581 25-1390). Kind of assay: cell-based or functional assay.

B1: c-Met IgG antibody 12136 (antibody, V domains shown)
VH: QVQLQESGPGLVKPSETLSLTCNVSGGSIRNYFWSWIRQPPGQGLEYIGYIYYSGTTDYNPSLKGRVTISLDTSKTQFSLKLNSVTAADTAFYYCVRGPNKYAFDPWGQGTLVTVSS
VL: SYELTQPPSVSVSPGQTASITCSGDKLGDKFASWYQQKAGQSPVLVIYRDTKRPSGIPERFSGSNSGNTATLTISGTQAMDEADYYCQAWDSSTAVFGTGTKVTVLG
notes: IgG of scFv PGIA-4-A8; also called 12136 IgG; IgG of scFv PGIA-04-A8 (PGIA-4-A8)
In the case of B1, in assay [1], the Kd stood at 0.8 nM, the koff is 0.000229 s⁻¹ and the on-rate constant (kon) came out at 294000 M⁻¹ s⁻¹. For the same molecule, the 50% inhibitory concentration (IC50) in assay [2] came out at 1 nM.

B2: c-Met 12136 Fab (Fab, V domains shown)
VH: QVQLQESGPGLVKPSETLSLTCNVSGGSIRNYFWSWIRQPPGQGLEYIGYIYYSGTTDYNPSLKGRVTISLDTSKTQFSLKLNSVTAADTAFYYCVRGPNKYAFDPWGQGTLVTVSS
VL: SYELTQPPSVSVSPGQTASITCSGDKLGDKFASWYQQKAGQSPVLVIYRDTKRPSGIPERFSGSNSGNTATLTISGTQAMDEADYYCQAWDSSTAVFGTGTKVTVLG
notes: VH and VL limits counted as for the IgG; also called Fab fragment derived from c-Met antibody 12136
On to B2, for which, in assay [3], the Kd was determined as 6 nM, the koff was 0.00101 s⁻¹ and the kon amounted to 168000 M⁻¹ s⁻¹.

B3: c-Met IgG antibody 12133 (antibody, V domains shown)
VH: QVQLQESGPGLVKPSGTLSLTCAVSGGSISTSDWWSWVRRPPGKGLEWIGEIYHSGSTNYHPSLKSRVTISLDKSKNQFSLKLSSVTAADTAVYYCAREGGHSGSYPLDYWGRGTLVTVSS
VL: NFMLTQPHSVSESPGKTATISCTGSGGSIARSYVQWYQQRPGRAPSIVIYEDYQRPSGVPDRFSGSIDSSSNSASLTITGLKTDDEADYYCQSSDDNNNVVFGGGTKVTVLG
notes: IgG of scFv PGIA-4-A5; also called 12133 IgG; IgG of scFv PGIA-04-A5 (PGIA-4-A5)
For the molecule B3, in assay [4], the “scatter assay on DU-145 cells, mean object area, agonist (alone), 100 nM IgG; the smaller the number, the more scattering” value was 241 mean object area and the “scatter assay on DU-145 cells, mean object area, antagonist (w/30 pM HGF), 100 nM IgG; the smaller the number, the more scattering” value was found to be 230 mean object area. In assay [1], this molecule returned a Kd of 6 nM, a koff of 0.000598 s⁻¹ and a kon of 98900 M⁻¹ s⁻¹. Also, the IC50 in assay [2] was found to be 0.58 nM.

B4: c-Met 12133 Fab (Fab, V domains shown)
VH: QVQLQESGPGLVKPSGTLSLTCAVSGGSISTSDWWSWVRRPPGKGLEWIGEIYHSGSTNYHPSLKSRVTISLDKSKNQFSLKLSSVTAADTAVYYCAREGGHSGSYPLDYWGRGTLVTVSS
VL: NFMLTQPHSVSESPGKTATISCTGSGGSIARSYVQWYQQRPGRAPSIVIYEDYQRPSGVPDRFSGSIDSSSNSASLTITGLKTDDEADYYCQSSDDNNNVVFGGGTKVTVLG
notes: VH and VL limits counted as for the IgG; also called Fab fragment derived from c-Met antibody 12133
For the molecule B4, in assay [3], the Kd was determined as 8.8 nM, the koff stood at 0.00245 s⁻¹ and the kon stood at 280000 M⁻¹ s⁻¹.

B5: c-Met IgG antibody 11986 (antibody, V domains shown)
VH: EVQLVQSGAEVKKPGATLKVSCKVSAYTFTDYSMHWVQQAPGKGLKWMGLIDLEDGNTIYAEEFQDRVTITADTSTDTAYMDLSSLRSEDTAVFYCAISPLRGLTADVFDVWGQGTLVTVSS
VL: QSALTQPASASGSPGQSITISCTGTSSDIGRYDFVSWYQRQPGKAPKLMIYDVINRPSGVSSRFSGSKSGNTASLTISGLQAEDEADYYCSSYAGSTTLYVFGTGTKLTVLG
notes: IgG of scFv PGIA-3-B1; also called 11986 IgG; IgG of scFv PGIA-03-B1 (PGIA-3-B1)
In the case of B5, in assay [2], the IC50 amounted to 0.52 nM.

B6: c-Met IgG antibody 12123 (antibody, V domains shown)
VH: QVQLQESGPGLVKPSATLSLTCAVSGGSISSNHWWSWVRQSPGKGLEWIGEIYTYGGANYNPSLKSRVDISMDKSKNQFSLHLSSVTAADTAVYYCGRHLTGYDCFDIWGQGTLVTVSS
VL: QAVLTQPSSVSGAPGQRVTISCTGSSSNIGAGYDVHWYQQLPGTAPKLLIYGNSNRPSGVPDRFSGSKSGTSASLAITGLQAEDEADYYCQSYDSSLSGVFGTGTQLTVLS
notes: IgG of scFv PGIA-3-B2; The VL reverse cloning primer RH62 codes ...TVLG whereas the scFv entry ends ...TVLS; also called 12123 IgG; IgG of scFv PGIA-03-B2 (PGIA-3-B2)
As for B6, in assay [4], the “scatter assay on DU-145 cells, mean object area, agonist (alone), 100 nM IgG; the smaller the number, the more scattering” value amounted to 234 mean object area and the “scatter assay on DU-145 cells, mean object area, antagonist (w/30 pM HGF), 100 nM IgG; the smaller the number, the more scattering” value came to 226 mean object area. In assay [1], this molecule gave a Kd of 9.7 nM, a koff of 0.00329 s⁻¹ and a kon of 338000 M⁻¹ s⁻¹. For the same molecule, in assay [2], the IC50 came out at 0.5 nM.

The values above are taken from patent US20040166544A1 (published 2004).
